Experimental data reported in the supplement of paper PMC9112550, “Optimization of the antimicrobial peptide Bac7 by deep mutational scanning” (BMC Biology, 2022).

Test system: Escherichia coli TOP10
Assay: shrunken log2 fold change of peptide-encoding DNA abundance (4.5 h post-induction vs induction); higher = less antimicrobial activity (less host growth inhibition)
Conditions: time post-induction: 4.5 h; library: site-saturation at positions 5, 18, 19, 20
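Also: peptides expressed intracellularly from a pBAD plasmid library in pooled LB shake-flask culture, induced with 0.3% L-arabinose, DNA abundance read by NGS, three biological replicates, DESeq2 with apeglm shrinkage.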

Sequence | shrunken log2 fold change
RRIRARPPRLPRPRPRPHERPRP | 0.0956
RRIRERPPRLPRPRPRPTWWPRP | 0.412
RRIRQRPPRLPRPRPRPGCVPRP | 0.269
RRIRIRPPRLPRPRPRPEKTPRP | -0.0512
RRIRLRPPRLPRPRPRPHPTPRP | -0.094
RRIRLRPPRLPRPRPRPGMSPRP | 0.0159
RRIRYRPPRLPRPRPRPCKRPRP | -0.0961
RRIRHRPPRLPRPRPRPNMMPRP | -0.263
RRIRIRPPRLPRPRPRPEAQPRP | 0.0863
RRIRGRPPRLPRPRPRPLMTPRP | 2.81
RRIRTRPPRLPRPRPRPLPLPRP | -0.107
RRIRVRPPRLPRPRPRPKHEPRP | -0.0072
RRIRDRPPRLPRPRPRPHFRPRP | -0.121
RRIRSRPPRLPRPRPRPQPAPRP | 0.0373
RRIRRRPPRLPRPRPRPAVPPRP | 0.146
RRIRFRPPRLPRPRPRPPFDPRP | 0.188
RRIRFRPPRLPRPRPRPGWKPRP | 0.208
RRIRTRPPRLPRPRPRPILLPRP | -0.658
RRIRARPPRLPRPRPRPVRIPRP | 0.00598
RRIRDRPPRLPRPRPRPMMVPRP | 0.0541

Sequence | shrunken log2 fold change
RRIRMRPPRLPRPRPRPCPGPRP | -0.000588
RRIRNRPPRLPRPRPRPFNYPRP | -0.752
RRIRFRPPRLPRPRPRPFDFPRP | -0.692
RRIRNRPPRLPRPRPRPRHFPRP | -0.201
RRIRVRPPRLPRPRPRPECFPRP | 0.195
RRIRMRPPRLPRPRPRPLQRPRP | 0.0735
RRIRPRPPRLPRPRPRPGECPRP | 0.739
RRIRLRPPRLPRPRPRPTQWPRP | 0.453
RRIRKRPPRLPRPRPRPLLPPRP | 0.227
RRIRERPPRLPRPRPRPKCCPRP | -0.191
RRIRWRPPRLPRPRPRPHEKPRP | -0.00914
RRIRFRPPRLPRPRPRPTGWPRP | 0.456
RRIRGRPPRLPRPRPRPQMLPRP | -0.0638
RRIRGRPPRLPRPRPRPRPRPRP | 1.31
RRIRCRPPRLPRPRPRPQWVPRP | -0.103
RRIRVRPPRLPRPRPRPWMWPRP | 0.091
RRIRVRPPRLPRPRPRPVWNPRP | 0.152
RRIRQRPPRLPRPRPRPYWMPRP | 0.0425
RRIRWRPPRLPRPRPRPPCVPRP | 0.301
RRIRNRPPRLPRPRPRPPDCPRP | 0.036

Sequence | shrunken log2 fold change
RRIRDRPPRLPRPRPRPKARPRP | 0.132
RRIRQRPPRLPRPRPRPLKCPRP | -0.139
RRIRKRPPRLPRPRPRPNNWPRP | 0.42
RRIRERPPRLPRPRPRPCGNPRP | -0.00264
RRIRSRPPRLPRPRPRPWKIPRP | -0.0842
RRIRERPPRLPRPRPRPSAIPRP | -0.115
RRIRCRPPRLPRPRPRPDANPRP | -0.00199
RRIRNRPPRLPRPRPRPLCEPRP | -0.107
RRIRERPPRLPRPRPRPKQFPRP | -0.0933
RRIRHRPPRLPRPRPRPFWQPRP | 0.0187
RRIRPRPPRLPRPRPRPCMCPRP | -0.0305
RRIRRRPPRLPRPRPRPLTKPRP | 0.132
RRIRHRPPRLPRPRPRPFMSPRP | -0.301
RRIRYRPPRLPRPRPRPEYNPRP | -0.15
RRIRIRPPRLPRPRPRPRFGPRP | 0.174
RRIRVRPPRLPRPRPRPFGFPRP | -0.294
RRIRDRPPRLPRPRPRPGYSPRP | -0.591
RRIRFRPPRLPRPRPRPPNPPRP | 0.412
RRIRRRPPRLPRPRPRPWAIPRP | -0.0356
RRIRIRPPRLPRPRPRPVQWPRP | 0.0754
